{
  "source": "paper PMC3578790",
  "about": "“Tight Interconnection and Multi-Level Control of Arabidopsis MYB44 in MAPK Cascade Signalling”",
  "binders": {"B1": {"name": "MBSII (dsDNA)", "DNA 1": "AGCTTCAAAAGTTAGTTACG", "DNA 2": "CGTAACTAACTTTTGAAGCT"}},
  "target": "MYB44 (Arabidopsis thaliana? (Arabidopsis, …, UniProt Q9FDW1 1-305))",
  "sequence (Q9FDW1 whole entry)": "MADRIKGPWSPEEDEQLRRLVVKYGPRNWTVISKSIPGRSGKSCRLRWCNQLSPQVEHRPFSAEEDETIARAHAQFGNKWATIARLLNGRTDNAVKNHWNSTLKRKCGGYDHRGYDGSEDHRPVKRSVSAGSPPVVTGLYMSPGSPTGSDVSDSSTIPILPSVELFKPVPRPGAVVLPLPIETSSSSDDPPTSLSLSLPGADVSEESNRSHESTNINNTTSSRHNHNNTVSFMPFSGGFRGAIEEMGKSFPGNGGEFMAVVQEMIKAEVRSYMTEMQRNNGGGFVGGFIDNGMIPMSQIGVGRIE",
  "assay": "EMSA; no competitor; unlabelled MBSII 100x blocks the shift; unchanged with GST-MPK3 and/or GST-MKK4, with or without 0.5 mM ATP; 10 mM Tris pH 8.0, 5 mM MgCl2, 100 mM KCl, 0.02% Triton X-100, 0.1 mg/ml BSA, 0.25% Tween, 2.5 mM DTT, 3 ng/ul poly(dIdC); 30 min room temperature; 5% PAGE in 0.5x TBE or TAE (TAE main) at 4 C",
  "conditions": "protein: recombinant; label: 5' Dy782 (Methods; called IRDye in Results); (only one strand printed)",
  "data": [
    {"binder": "B1", "values": [
      {"measurement": "binding result", "value": "binds"}
    ]}
  ]
}
